Assay results as given in publication PMC10771423, “Discovery and biochemical characterization of thermostable glycerol oxidases” (Applied Microbiology and Biotechnology, 2024).

Legend:
purified protein [1] = substrate: OC[C@@H](O)[C@H](O)[C@@H](O)CO; experiment: purified protein; conditions: 50 mM KPi pH 7.5, 25 °C, O2 as co-substrate
purified protein [2] = substrate: OCC(O)CO; experiment: purified protein; conditions: 50 mM KPi pH 7.5, 25 °C, O2 as co-substrate

Protein | Km (purified protein [1]) | kcat (purified protein [1]) | kcat/Km (purified protein [1]) | Km (purified protein [2]) | kcat (purified protein [2]) | kcat/Km (purified protein [2])
AldOAb (Actinomycetota bacterium) (protein) MTMRSTNWAGNVVYRASELHRPASLDELRRVVARSPKVRVLGSGHSFNEITDTEGALVSLEALPPEVEIDRATGTARVAAGLRYGELSARLHAAGYALPNLASLPHICVAGACATGTHGSGDGIGGLAGSVTAVELVTADGDLVTLSRDADPDRFPGAVVSLGALGAVVTMTLRLEPAFQVRQRVYENLPAEALDDHFDEIMASGYSVSLFTDWRGDRIRQVWVKERVGDPAAGGEEREPVVAALGATPADGPRHPVPGMPAANCTEQLGVPGPWHERLPHFRLGFTPSSGDELQAEYLLPRRHAVAAFHALAGIADRIAPVLHISEIRTVAADDLWLSPFHGRNTVAFHFTWKPDEAAVREVLSLMEEVLAPFEPRPHWGKLFAIPPKVLRSRYDRIGDFRALARELDPSGKFANAFVAHHVLDDE | 30 µM | 4.2 s⁻¹ | 140000 M⁻¹ s⁻¹ | – | – | –
AldOCh (Thermostaphylospora chromogena) (protein) MSPTLTNWAGNIVFRAGEVHRPETLEELRTLVTRADKVRVLGSGHSFNDIADSPGVLVSPSRLPRELELDTAAGAVRVSAGIRYAELSAWLHERGFALHNLASLPHISVAGSCATATHGSGDGNGNLATAVRALTLVTAEGDLVDLDRERDGDRFRGAVVGLGALGVVVSMTLDVEPTFEVRQRVYEDLPLEAACDHFSDIMGCAYSVSMFSDWTSSRINQVWVKERVDEDGSRPPGPASFGAKPADGPRHPIARMPAGNCTEQLGVPGPWFARLPHFRPEFTPSGGQERQAEYLVPRRHAVAALRELAAIGDRIAPVLQISEIRTIAADDLWLSPCQGRDTVGFHFTLIPDTAAVLPVLELIEERLAPFEARPHWGKLFTTPPAVLRSRYDRLPDFQALARDLDPGGKFANEFISRNLLDA | 40 µM | 3.5 s⁻¹ | 120000 M⁻¹ s⁻¹ | – | – | –
AldOTf (Thermopolyspora flexuosa) (protein) MRSTNWAGNVVFRASELHRPASIDELRRVVARSPKVRVLGSGHSFNEITDTDGTLVSLDALPPEVEIDGATGTARISAGLRYGELSRRLHAAGHALANLASLPHICVAGACATGTHGSGDGNGGLATSVTAVELVTGEGDLVTLSRDADPDRFPGAVVSLGALGVVVAMTLRLVPAFEVRQRVYENLPAEALAGHFDEIMASGYSVSLFTDWRGDRISQVWVKERVDASSGAPGDEREPVVAALGATPADGPRHPVPGMPAVNCTEQLGVPGPWFERLPHFRPEFTPSSGDELQAEYLLPRRHAVAAFQALAGIADRIAPVLHISEIRTVAADDLWLSPFHGRDTVAFHFTWKRDEAAVLDVLGLMEDVLAPFEPRPHWGKLFTIPPKVLHSRYDRMADFRALARELDPAGKFANAFVARHVLEIE | 30 µM | 3.1 s⁻¹ | 100000 M⁻¹ s⁻¹ | 50000 µM | 1.6 s⁻¹ | 32 M⁻¹ s⁻¹
